Among the data in paper PMC5932363, “Proteinase 3 Interferes With C1q-Mediated Clearance of Apoptotic Cells” (Frontiers in Immunology, 2018) are Kd, koff and kon values, retold here.

This assay has as its target T1, C1q (complement protein C1q, intact) (human, UniProt P02745 23-245; P02746 28-253; P02747 29-245).
T1 construct: complement C1q subunit A, human; C1q purified from human serum; a hexamer of heterotrimers; complement C1q subunit B, human; complement C1q subunit C, human; also called intact C1q; whole C1q; source: purified from human serum; copies: 6 + 6 + 6
In words: SPR; BIAcore 3000; PR3 immobilised on a CM5 chip by amine coupling; C1q, gC1q or cC1q as soluble analytes; 50 mM Tris, 150 mM NaCl, 2 mM Ca2+, 0.005% surfactant P20, pH 7.4; flow 20 µl/min; global fit to a 1:1 Langmuir model; apparent KD from koff/kon. The settings on record: both partners purified. (In SPR one partner is held on a chip, and binding of the other changes the refractive index at the surface.)

T1 sequence (P02745 23-245, chain 1 of 3): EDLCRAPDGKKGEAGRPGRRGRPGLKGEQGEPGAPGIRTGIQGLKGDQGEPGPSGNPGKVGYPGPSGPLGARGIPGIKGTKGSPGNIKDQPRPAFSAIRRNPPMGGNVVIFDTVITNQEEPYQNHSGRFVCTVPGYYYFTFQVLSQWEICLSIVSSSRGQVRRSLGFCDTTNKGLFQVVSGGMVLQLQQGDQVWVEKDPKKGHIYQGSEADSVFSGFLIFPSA
T1 sequence (P02746 28-253, chain 2 of 3): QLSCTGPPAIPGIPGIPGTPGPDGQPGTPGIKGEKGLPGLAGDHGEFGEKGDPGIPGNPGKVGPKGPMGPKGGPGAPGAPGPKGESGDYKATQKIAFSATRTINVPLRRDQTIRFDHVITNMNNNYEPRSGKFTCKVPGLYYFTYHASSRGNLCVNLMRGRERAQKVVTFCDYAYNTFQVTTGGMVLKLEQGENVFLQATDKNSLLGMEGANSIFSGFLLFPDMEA
T1 sequence (P02747 29-245, chain 3 of 3): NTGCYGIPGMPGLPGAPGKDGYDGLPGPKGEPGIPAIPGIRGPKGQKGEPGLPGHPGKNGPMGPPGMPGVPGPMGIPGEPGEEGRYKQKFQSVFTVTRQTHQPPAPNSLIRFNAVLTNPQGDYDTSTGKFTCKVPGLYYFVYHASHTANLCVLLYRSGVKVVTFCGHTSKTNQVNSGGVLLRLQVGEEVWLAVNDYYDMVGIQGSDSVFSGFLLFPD

B1: Proteinase 3 (PR3), purified (enzyme, UniProt P24158 28-248, looked up)
chain: IVGGHEAQPHSRPYMASLQMRGNPGSHFCGGTLIHPSFVLTAAHCLRDIPQRLVNVVLGAHNVRTQEPTQQHFSVAQVFLNNYDAENKLNDVLLIQLSSPANLSASVATVQLPQQDQPVPHGTQCLAMGWGRVGAHDPPAQVLQELNVTVVTFFCRPHNICTFVPRRKAGICFGDSGGPLICDGIIQGIDSFVIWGCATRLFPDFFTRVALYVDWIRSTLR
notes: proteinase 3 (myeloblastin), neutrophil-derived serine protease; also called purified PR3; immobilized PR3; source: bought: Athens Research and Technology
As for B1, the Kd was found to be 190 nM, the koff is 0.00151 s⁻¹ and the kon was 7800 M⁻¹ s⁻¹.

As usually defined, the koff is the rate constant with which the complex falls apart. As usually defined, the kon is the second-order rate constant of association.
